# Reference: patent US7902330
# Starred links: 1 amine or outer side, 2 acyl side, 3 side chain; linkers in the order of their positions; H or OH if unused. Non-standard residues stand in square brackets, D forms with d. No end group written: not given here. *: point of attachment. 4‑nitrohippuryl = O=C(NCC(=O)*)c1ccc([N+](=O)[O-])cc1; Benzoyl(4-(pyrrol-1-yl)) = O=C(c1ccc(-n2cccc2)cc1)*; bis(2,3-dihydroxybenzyl) = not defined here; 10‑hydroxydecanoyl = O=C(CCCCCCCCCO)*; Cysteamide = C(CS[*:3])N[*:1]; Dap = NC[C@H](N)C(=O)O
# T1: acetyl-Pro-Arg-Lys-Arg-Glu-Gly-Ser-Val-Arg-Arg-Arg-NH2
# T1 chain: PRKREGSVRRR
# B1: protein kinase C ε (protein)
# chain: MVVFNGLLKIKICEAVSLKPTAWSLRHAVGPRPQTFLLDPYIALNVDDSRIGQTATKQKTNSPAWHDEFVTDVCNGRKIELAVFHDAPIGYDDFVANCTIQFEELLQNGSRHFEDWIDLEPEGRVYVIIDLSGSSGEAPKDNEERVFRERMRPRKRQGAVRRRVHQVNGHKFMATYLRQPTYCSHCRDFIWGVIGKQGYQCQVCTCVVHKRCHELIITKCAGLKKQETPDQVGSQRFSVNMPHKFGIHNYKVPTFCDHCGSLLWGLLRQGLQCKVCKMNVHRRCETNVAPNCGVDARGIAKVLADLGVTPDKITNSGQRRKKLIAGAESPQPASGSSPSEEDRSKSAPTSPCDQEIKELENNIRKALSFDNRGEEHRAASSPDGQLMSPGENGEVRQGQAKRLGLDEFNFIKVLGKGSFGKVMLAELKGKDEVYAVKVLKKDVILQDDDVDCTMTEKRILALARKHPYLTQLYCCFQTKDRLFFVMEYVNGGDLMFQIQRSRKFDEPRSRFYAAEVTSALMFLHQHGVIYRDLKLDNILLDAEGHCKLADFGMCKEGILNGVTTTTFCGTPDYIAPEILQELEYGPSVDWWALGVLMYEMMAGQPPFEADNEDDLFESILHDDVLYPVWLSKEAVSILKAFMTKNPHKRLGCVASQNGEDAIKQHPFFKEIDWVLLEQKKIKPPFKPRIKTKRDVNNFDQDFTREEPVLTLVDEAIVKQINQEEFKGFSYFGEDLMP
# B2: Compound C (peptide)
# peptide: Ac-RRQG[Dap](4‑nitrohippuryl)FMYF-Cysteamide
# SMILES: CSCC[C@H](NC(=O)[C@H](Cc1ccccc1)NC(=O)[C@H](CNC(=O)CNC(=O)c1ccc([N+](=O)[O-])cc1)NC(=O)CNC(=O)[C@H](CCC(N)=O)NC(=O)[C@H](CCCNC(=N)N)NC(=O)[C@H](CCCNC(=N)N)NC(C)=O)C(=O)N[C@@H](Cc1ccc(O)cc1)C(=O)N[C@@H](Cc1ccccc1)C(=O)NCCS
# Tests used:
# a subset of other PKCs = experiment: cell-based or functional assay
# other PKC isoforms = experiment: cell-based or functional assay
# [1] = target: T1, acetyl-Pro-Arg-Lys-Arg-Glu-Gly-Ser-Val-A …
# [2] = target: protein kinase C δ, Q05655; experiment: cell-based or functional assay
binder,measurement,setting,value
Ac-RRQG[Dap](10‑hydroxydecanoyl)FMYF-Cysteamide [Compound B],selectivity for PKC ζ versus a subset of other PKCs,a subset of other PKCs,< 10 fold
Ac-ARRGALR[Dap](Benzoyl(4-(pyrrol-1-yl)))A-Cysteamide [compound 3 (lead from library III)],selectivity for PKCα versus other PKC isoforms,other PKC isoforms,< 3 fold
B1,Km of the peptide substrate,[1],5.9 µM (PKCε)
H-RRQG[Dap]FMYF-Cysteamide (not fully specified (residue 5)) [Compound E (nonacylated free amine)],"IC50, PKC kinase assay (33P, peptide substrate)",[2],0.025 µM
same,Selectivity (IC50 relative to PKC βI = 1),[2],3.1 fold
ARRGALR[Dap](Benzoyl(4-(pyrrol-1-yl)))A-Cysteamide (also: further groups not given here) [compound 6 (primary lead from library IV)],selectivity for PKCα versus this isoform,[2],2730 fold
B2,selectivity for PKC ζ versus a subset of other PKCs,a subset of other PKCs,< 10 fold
"{bis(2,3-dihydroxybenzyl)}-RRQG[Dap](4‑nitrohippuryl)FMYF-Cysteamide (reading uncertain) [Compound G (doubly alkylated analogue of F)]","Fold selectivity (IC50), PKC ζ = 1",[2],693 fold
same,"IC50, PKC kinase assay (33P, peptide substrate)",[2],5.2 µM
Ac-RRQG[Dap](Ac)FMYF-Cysteamide [Compound A (diacetylated consensus derivative)],"IC50, PKC kinase assay",[2],50 µM
